Experimental data as given in the array DNA melting data of Ke et al..

Test: melting temperature; melt of duplexes
Conditions: sodium 0.0675 M; strand 1 µM

Row | Substance | Tm [°C]
1 | CGACGTGCAGTATGTGCTG+CAGCACATTCCGCACGTCG ((((((((.(.((((((((+)))))))).).)))))))) | 50.1
2 | CGACGTGCACGATGTGCTG+CAGCACATCGGGCACGTCG ((((((((.((((((((((+)))))))))).)))))))) | 63.8
3 | CGACGTGCGAGATGTGCTG+CAGCACATGTTGCACGTCG ((((((((.(.((((((((+)))))))).).)))))))) | 54.3
4 | CGACGTGCTGGATGTGCTG+CAGCACATTATGCACGTCG ((((((((...((((((((+))))))))...)))))))) | 52
5 | CGACGTGCGACATGTGCTG+CAGCACATCAGGCACGTCG ((((((((...((((((((+))))))))...)))))))) | 49
6 | CGACGTGCGTAATGTGCTG+CAGCACATAGGGCACGTCG ((((((((...((((((((+))))))))...)))))))) | 51.1
7 | CGACGTGCGCGATGTGCTG+CAGCACATCGGGCACGTCG ((((((((.((((((((((+)))))))))).)))))))) | 63.6
8 | CGACGTGCCGCATGTGCTG+CAGCACATCACGCACGTCG ((((((((...((((((((+))))))))...)))))))) | 48.3
9 | CGACGTGCATAATGTGCTG+CAGCACATCCCGCACGTCG ((((((((...((((((((+))))))))...)))))))) | 46.9
10 | CGACGTGCACGATGTGCTG+CAGCACATGTAGCACGTCG ((((((((...((((((((+))))))))...)))))))) | 48.7
11 | CGACGTGCCACATGTGCTG+CAGCACATTCGGCACGTCG (((((((((..((((((((+))))))))..))))))))) | 53.4
12 | CGACGTGCCCAATGTGCTG+CAGCACATGTGGCACGTCG (((((((((..((((((((+))))))))..))))))))) | 56.2
13 | CGACGTGCAGTATGTGCTG+CAGCACATTATGCACGTCG (((((((((..((((((((+))))))))..))))))))) | 52.4
14 | CGACGTGCTCTATGTGCTG+CAGCACATTTAGCACGTCG (((((((((..((((((((+))))))))..))))))))) | 51
15 | CGACGTGCAACATGTGCTG+CAGCACATTGCGCACGTCG ((((((((...((((((((+))))))))...)))))))) | 48.8
16 | CGACGTGCGCTATGTGCTG+CAGCACATGTAGCACGTCG ((((((((...((((((((+))))))))...)))))))) | 52.5
17 | CGACGTGCATGATGTGCTG+CAGCACATTATGCACGTCG ((((((((((.((((((((+)))))))).)))))))))) | 57.3
18 | CGACGTGCAAAATGTGCTG+CAGCACATTTCGCACGTCG ((((((((.((((((((((+)))))))))).)))))))) | 55.4
19 | CGACGTGCTTAATGTGCTG+CAGCACATAGCGCACGTCG ((((((((...((((((((+))))))))...)))))))) | 47.3
20 | CGACGTGCTCAATGTGCTG+CAGCACATCTGGCACGTCG ((((((((...((((((((+))))))))...)))))))) | 50.3
21 | CGACGTGCTCGATGTGCTG+CAGCACATAGAGCACGTCG ((((((((((.((((((((+)))))))).)))))))))) | 59.5
22 | CGACGTGCGGCATGTGCTG+CAGCACATAGCGCACGTCG (((((((((..((((((((+))))))))..))))))))) | 55.9
23 | CGACGTGCTAAATGTGCTG+CAGCACATGGAGCACGTCG (((((((((..((((((((+))))))))..))))))))) | 54.5
24 | CGACGTGCAAAATGTGCTG+CAGCACATACCGCACGTCG ((((((((...((((((((+))))))))...)))))))) | 48.1

Row | Substance | Tm [°C]
25 | CGACGTGCATAATGTGCTG+CAGCACATCATGCACGTCG ((((((((((.((((((((+)))))))).)))))))))) | 54
26 | CGACGTGCGGCATGTGCTG+CAGCACATTCTGCACGTCG ((((((((.(.((((((((+)))))))).).)))))))) | 53.1
27 | CGACGTGCAACATGTGCTG+CAGCACATGAAGCACGTCG ((((((((..(((((((((+)))))))))..)))))))) | 54.3
28 | CGACGTGCACTATGTGCTG+CAGCACATCGTGCACGTCG ((((((((((.((((((((+)))))))).)))))))))) | 51.4
29 | CGACGTGCAGCATGTGCTG+CAGCACATCTGGCACGTCG ((((((((...((((((((+))))))))...)))))))) | 49.5
30 | CGACGTGCGCTATGTGCTG+CAGCACATGAAGCACGTCG ((((((((...((((((((+))))))))...)))))))) | 53.9
31 | CGACGTGCGATATGTGCTG+CAGCACATTCGGCACGTCG ((((((((...((((((((+))))))))...)))))))) | 52.7
32 | CGACGTGCAAGATGTGCTG+CAGCACATCACGCACGTCG ((((((((..(((((((((+)))))))))..)))))))) | 53.8
33 | CGACGTGCCAAATGTGCTG+CAGCACATTCGGCACGTCG (((((((((.(((((((((+))))))))).))))))))) | 57.5
34 | CGACGTGCTTAATGTGCTG+CAGCACATTGCGCACGTCG ((((((((..(((((((((+)))))))))..)))))))) | 50.1
35 | CGACGTGCTACATGTGCTG+CAGCACATACAGCACGTCG (((((((((..((((((((+))))))))..))))))))) | 51.5
36 | CGACGTGCACCATGTGCTG+CAGCACATTTTGCACGTCG (((((((((..((((((((+))))))))..))))))))) | 46.7
37 | CGACGTGCCTCATGTGCTG+CAGCACATGATGCACGTCG ((((((((.((((((((((+)))))))))).)))))))) | 56.7
38 | CGACGTGCGGGATGTGCTG+CAGCACATAACGCACGTCG (((((((((..((((((((+))))))))..))))))))) | 59.4
39 | CGACGTGCCCAATGTGCTG+CAGCACATATCGCACGTCG ((((((((...((((((((+))))))))...)))))))) | 47.1
40 | CGACGTGCCTGATGTGCTG+CAGCACATGGGGCACGTCG (((((((((..((((((((+))))))))..))))))))) | 56.4
41 | CGACGTGCGTCATGTGCTG+CAGCACATTTAGCACGTCG ((((((((...((((((((+))))))))...)))))))) | 51.6
42 | CGACGTGCGTTATGTGCTG+CAGCACATATCGCACGTCG (((((((((.(((((((((+))))))))).))))))))) | 56.5
43 | CGACGTGCAGGATGTGCTG+CAGCACATATAGCACGTCG ((((((((...((((((((+))))))))...)))))))) | 50.6
44 | CGACGTGCTCCATGTGCTG+CAGCACATTCGGCACGTCG ((((((((...((((((((+))))))))...)))))))) | 47.6
45 | CGACGTGCGGTATGTGCTG+CAGCACATGCCGCACGTCG ((((((((((.((((((((+)))))))).)))))))))) | 63.4
46 | CGACGTGCCGAATGTGCTG+CAGCACATACTGCACGTCG ((((((((.(.((((((((+)))))))).).)))))))) | 50.2
47 | CGACGTGCTCTATGTGCTG+CAGCACATTCTGCACGTCG ((((((((...((((((((+))))))))...)))))))) | 47.8
48 | CGACGTGCAAAATGTGCTG+CAGCACATGTAGCACGTCG ((((((((.(.((((((((+)))))))).).)))))))) | 53.1

Row | Substance | Tm [°C]
49 | CGACGTGCCCGATGTGCTG+CAGCACATCGTGCACGTCG ((((((((.((((((((((+)))))))))).)))))))) | 57.1
50 | CGACGTGCGATATGTGCTG+CAGCACATTTTGCACGTCG ((((((((.(.((((((((+)))))))).).)))))))) | 52.5
51 | CGACGTGCTTAATGTGCTG+CAGCACATGGAGCACGTCG (((((((((..((((((((+))))))))..))))))))) | 54.4
52 | CGACGTGCAAGATGTGCTG+CAGCACATCCGGCACGTCG ((((((((..(((((((((+)))))))))..)))))))) | 54.9
53 | CGACGTGCGCCATGTGCTG+CAGCACATAGTGCACGTCG ((((((((.(.((((((((+)))))))).).)))))))) | 49
54 | CGACGTGCCAGATGTGCTG+CAGCACATAGGGCACGTCG (((((((((..((((((((+))))))))..))))))))) | 55.8
55 | CGACGTGCAGGATGTGCTG+CAGCACATTGAGCACGTCG ((((((((...((((((((+))))))))...)))))))) | 50.6
56 | CGACGTGCGATATGTGCTG+CAGCACATAAGGCACGTCG ((((((((..(((((((((+)))))))))..)))))))) | 52
57 | CGACGTGCGGAATGTGCTG+CAGCACATGCGGCACGTCG ((((((((.(.((((((((+)))))))).).)))))))) | 54.3
58 | CGACGTGCCCAATGTGCTG+CAGCACATGAGGCACGTCG (((((((((..((((((((+))))))))..))))))))) | 56.1
59 | CGACGTGCGTTATGTGCTG+CAGCACATGTGGCACGTCG ((((((((...((((((((+))))))))...)))))))) | 49.6
60 | CGACGTGCCCAATGTGCTG+CAGCACATGCGGCACGTCG (((((((((..((((((((+))))))))..))))))))) | 54.3
61 | CGACGTGCCTTATGTGCTG+CAGCACATAAAGCACGTCG ((((((((.((((((((((+)))))))))).)))))))) | 53.4
62 | CGACGTGCTACATGTGCTG+CAGCACATAGGGCACGTCG ((((((((...((((((((+))))))))...)))))))) | 50.8
63 | CGACGTGCCTTATGTGCTG+CAGCACATGTAGCACGTCG ((((((((...((((((((+))))))))...)))))))) | 49.1
64 | CGACGTGCTATATGTGCTG+CAGCACATCCAGCACGTCG (((((((((..((((((((+))))))))..))))))))) | 50.2
65 | CGACGTGCATTATGTGCTG+CAGCACATGCCGCACGTCG ((((((((...((((((((+))))))))...)))))))) | 47.5
66 | CGACGTGCACAATGTGCTG+CAGCACATTTTGCACGTCG (((((((((.(((((((((+))))))))).))))))))) | 54
67 | CGACGTGCTCTATGTGCTG+CAGCACATACTGCACGTCG ((((((((..(((((((((+)))))))))..)))))))) | 49.5
68 | CGACGTGCTATATGTGCTG+CAGCACATAAAGCACGTCG (((((((((.(((((((((+))))))))).))))))))) | 55.6
69 | CGACGTGCTGTATGTGCTG+CAGCACATCATGCACGTCG ((((((((...((((((((+))))))))...)))))))) | 50.9
70 | CGACGTGCCCCATGTGCTG+CAGCACATAGAGCACGTCG ((((((((.(.((((((((+)))))))).).)))))))) | 48.7
71 | CGACGTGCTGAATGTGCTG+CAGCACATTGAGCACGTCG (((((((((.(((((((((+))))))))).))))))))) | 56.6
72 | CGACGTGCTCGATGTGCTG+CAGCACATGGTGCACGTCG ((((((((.(.((((((((+)))))))).).)))))))) | 49.7
